Patent publication US20120021995A1 (published 2012)

T1: DR4 (TRAIL-R1) on cancer cells (human, UniProt O00220 24-468)
T1 sequence: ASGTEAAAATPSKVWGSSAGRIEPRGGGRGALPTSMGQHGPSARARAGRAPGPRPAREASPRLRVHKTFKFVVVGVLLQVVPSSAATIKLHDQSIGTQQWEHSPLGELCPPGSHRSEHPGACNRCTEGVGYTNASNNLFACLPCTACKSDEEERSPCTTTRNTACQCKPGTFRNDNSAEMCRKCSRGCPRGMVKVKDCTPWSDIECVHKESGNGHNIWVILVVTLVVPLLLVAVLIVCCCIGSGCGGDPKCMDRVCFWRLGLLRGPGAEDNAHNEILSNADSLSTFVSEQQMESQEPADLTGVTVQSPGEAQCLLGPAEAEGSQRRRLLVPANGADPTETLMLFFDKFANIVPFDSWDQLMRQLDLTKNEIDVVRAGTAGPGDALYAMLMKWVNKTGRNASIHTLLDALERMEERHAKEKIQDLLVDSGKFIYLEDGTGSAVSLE

T2: recombinant human TRAIL R1 (DR4)/Fc chimera (human, UniProt O00220 24-239)
T2 construct: bought (R&D Systems); not shown: Fc of the bought chimera (R&D Systems)
T2 sequence: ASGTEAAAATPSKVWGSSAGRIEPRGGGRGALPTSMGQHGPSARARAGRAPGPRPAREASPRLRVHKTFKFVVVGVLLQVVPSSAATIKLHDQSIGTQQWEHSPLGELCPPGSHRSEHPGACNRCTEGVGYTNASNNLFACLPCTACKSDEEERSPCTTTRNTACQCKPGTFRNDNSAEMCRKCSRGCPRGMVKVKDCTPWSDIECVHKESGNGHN

B1: 71p88P1B9 (designed binder)
chain: EPPTQKPKKIVNAKKDVVNTKMFEELKSRLDTLAQEVALLKEQQALQTVCLKGTKVHMKCFLAFTQTKTFHEASEDCISRGGTLSTPQTGSENDALYEYLRQSVGNEAEIWLGLNGWLAGSGWVDMTGARIAYKNWETEITAQPDGGGGWPWENCAVLSGAANGKWFDKRCRDQLPYICQFGIV
B2: 71p88P1G11 (designed binder)
chain: EPPTQKPKKIVNAKKDVVNTKMFEELKSRLDTLAQEVALLKEQQALQTVCLKGTKVHMKCFLAFTQTKTFHEASEDCISRGGTLSTPQTGSENDALYEYLRQSVGNEAEIWLGLNGWMAGVGWVDMTGARIAYKNWETEITAQPDGGPGLRWENCAVLSGAANGKWFDKRCRDQLPYICQFGIV
B3: 71p88P1B12 (designed binder)
chain: EPPTQKPKKIVNAKKDVVNTKMFEELKSRLDTLAQEVALLKEQQALQTVCLKGTKVHMKCFLAFTQTKTFHEASEDCISRGGTLSTPQTGSENDALYEYLRQSVGNEAEIWLGLNGWIEGAGWVDMTGARIAYKNWETEITAQPDGGWRSRWENCAVLSGAANGKWFDKRCRDQLPYICQFGIV
B4: 71p88P1D9 (designed binder)
chain: EPPTQKPKKIVNAKKDVVNTKMFEELKSRLDTLAQEVALLKEQQALQTVCLKGTKVHMKCFLAFTQTKTFHEASEDCISRGGTLSTPQTGSENDALYEYLRQSVGNEAEIWLGLNGWVAGVGWVDMTGARIAYKNWETEITAQPDGGGGWRWENCAVLSGAANGKWFDKRCRDQLPYICQFGIV
B5: 119p83P1A3 (designed binder)
chain: ALQTVCLKGTKVHMKCFLAFTQTKTFHEASEDCISRGGTLSTPQTGSENDALYEYLRQSVGNEAEIWLGLNGWLEGVGWVDMTGARIAYKNWVAKDHEQPDGGWPFSNENCAVLSGAANGKWFDKRCRDQLPYICQFGIV
notes: on phage
B6: 119p83P1C9 (designed binder)
chain: ALQTVCLKGTKVHMKCFLAFTQTKTFHEASEDCISRGGTLSTPQTGSENDALYEYLRQSVGNEAEIWLGLNGWLEGVGWVDMTGARIAYKNWGGEVLLQPDGGWPFSNENCAVLSGAANGKWFDKRCRDQLPYICQFGIV
notes: on phage
B7: 119p83P1A11 (designed binder)
chain: ALQTVCLKGTKVHMKCFLAFTQTKTFHEASEDCISRGGTLSTPQTGSENDALYEYLRQSVGNEAEIWLGLNGWLEGVGWVDMTGARIAYKNWDAPVSGQPDGGWPFSNENCAVLSGAANGKWFDKRCRDQLPYICQFGIV
notes: on phage
B8: 119p83P1A9 (designed binder)
chain: ALQTVCLKGTKVHMKCFLAFTQTKTFHEASEDCISRGGTLSTPQTGSENDALYEYLRQSVGNEAEIWLGLNGWLEGVGWVDMTGARIAYKNWVYRPGMQPDGGWPFSNENCAVLSGAANGKWFDKRCRDQLPYICQFGIV
notes: on phage
B9: 119p83P1A7′ (designed binder)
chain: ALQTVCLKGTKVHMKCFLAFTQTKTFHEASEDCISRGGTLSTPQTGSENDALYEYLRQSVGNEAEIWLGLNGWLEGVGWVDMTGARIAYKNWYSWPKLQPDGGWPFSNENCAVLSGAANGKWFDKRCRDQLPYICQFGIV
notes: on phage
B10: 119p83P1A12 (designed binder)
chain: ALQTVCLKGTKVHMKCFLAFTQTKTFHEASEDCISRGGTLSTPQTGSENDALYEYLRQSVGNEAEIWLGLNGWLEGVGWVDMTGARIAYKNWQPGLWRQPDGGWPFSNENCAVLSGAANGKWFDKRCRDQLPYICQFGIV
notes: on phage

The binders below were run against T1, DR4 (TRAIL-R1) on cancer cells (assay: cell-based or functional assay).
For B1, the “Colo205 % killing (% of TRAIL activity)” value was 7%, the “H2122 % killing (% of TRAIL activity)” value was 3% and the “ST486 % killing (% of TRAIL activity)” value was 34%.
With B2 the “Colo205 % killing (% of TRAIL activity)” value was 1%, the “H2122 % killing (% of TRAIL activity)” value was 4% and the “ST486 % killing (% of TRAIL activity)” value was 45%.
In the case of B3, the “Colo205 % killing (% of TRAIL activity)” value is reported as -10%, the “H2122 % killing (% of TRAIL activity)” value is reported as -1% and the “ST486 % killing (% of TRAIL activity)” value is reported as 26%.
With B4 the “Colo205 % killing (% of TRAIL activity)” value was -21%, the “H2122 % killing (% of TRAIL activity)” value was -3% and the “ST486 % killing (% of TRAIL activity)” value was 28%.

The binders below were run against T2, recombinant human TRAIL R1 (DR4)/Fc … (assay: phage ELISA on DR4/Fc).
B5: binds.
B6: binds.
B7: binds.
B8: binds.
B9: binds.
B10: binds.
